Our source for the self-cleavage values is the RNAGym collection of RNA variant scans (doi:10.7554/elife.80360).

B1: HDV Ribozyme (parent)
chain: GGCCGGCAUGGUCCCAGCCUCCUCGCUGGCGCCGGCUGGGCAACAUUCCGAGGGGACCGUCCCCUCGGUAAUGGCGAAUGGGACCCA

In this data set the parent is B1. Nature of the data set: self-cleavage, relative activity (ratio to wild type); higher = more cleavage; co-transcriptional.
Consider GGCCGGCAUGGUCCCAGCCUCCUCGCUGGCGCCGGCUGGGCAACAAUCCGAGGGGACCGUCCCCUCGGUAAUGGCGAAUGGGACCCU, for which the self-cleavage stood at 0.76.
To GGCCGGCAUGGUCCCAGCCUCCUCGCUGGCGCCGGCUGGGCAACAAUCCGAGGGGACCGUCCCCUCGGUAAUGGCGAAUGGGACCCG belongs 0.712; to GGCCGGCAUGGUCCCAGCCUCCUCGCUGGCGCCGGCUGGGCAACAAUCCGAGGGGAUCGUCCCCUCGGUAAUGGCGAAUGGGACCCA, 0.657.
To GGCCGGCAUGGUCCCAGCCUCCUCGCUGGCGCCGGCUGGGCAACAAUCCGAGGGGAACGUCCCCUCGGUAAUGGCGAAUGGGACCCA belongs 0.851.
To GGCCGGCAUGGUCCCAGCCUCCUCGCUGGCGCCGGCUGGGCAACUUACCGAGGGGACCGUCCCCUCGGUAAUGGCGAAUGGGACCCA belongs 0.973; to GGCCGGCAUGGUCCCAGCCUCCUCGCUGGCGCCGGCUGGGCAACUUGCCGAGGGGACCGUCCCCUCGGUAAUGGCGAAUGGGACCCA, 0.867.
For GGCCGGCAUGGUCCCAGCCUCCUCGCUGGCGCCGGCUGGGCAACUUCCCGAGGGGACCGUCCCCUCGGUAAUGGCGAAUGGGACCCA, the self-cleavage turned out to be 0.772.
To GGCCGGCAUGGUCCCAGCCUCCUCGCUGGCGCCGGCUGGGCAACAAUCCGAGGGGACCGUCCCCUCGGUAAUGGCGAAUGGGAACCA belongs 0.629; to GGCCGGCAUGGUCCCAGCCUCCUCGCUGGCGCCGGCUGGGCAACAAUCCGAGGGGACCGUCCCCUCGGUAAUGGCGAAUGGGAUCCA, 0.397; to GGCCGGCAUGGUCCCAGCCUCCUCGCUGGCGCCGGCUGGGCAACAAUCCGAGGGGACCUUCCCCUCGGUAAUGGCGAAUGGGACCCA, 0.674.
To GGCCGGCAUGGUCCCAGCCUCCUCGCUGGCGCCGGCUGGGCAACAAUCCGAGGGGACCCUCCCCUCGGUAAUGGCGAAUGGGACCCA belongs 0.57.
To GGCCGGCAUGGUCCCAGCCUCCUCGCUGGCGCCGGCUGGGCAACAAUCCGAGGGGACCGUCCCCUCGGUAAUGGGGAAUGGGACCCA belongs 0.0594; to GGCCGGCAUGGUCCCAGCCUCCUCGCUGGCGCCGGCUGGGCAACAAUCCGAGGGGACCGUCCCAUCGGUAAUGGCGAAUGGGACCCA, 0.554; to GGCCGGCAUGGUCCCAGCCUCCUCGCUGGCGCCGGCUGGGCAACAAUCCGAGGGGACCGUCCCGUCGGUAAUGGCGAAUGGGACCCA, 0.38.
On to GGCCGGCAUGGUCCCAGCCUCCUCGCUGGCGCCGGCUGGGCAACAAUCCGAGGGGACCGUCCCUUCGGUAAUGGCGAAUGGGACCCA, for which the self-cleavage turned out to be 0.649.
Consider GGCCGGCAUGGUCCCAGCCUCCUCGCUGGCGCCGGCUGGGCAACAAUCCGACGGGACCGUCCCCUCGGUAAUGGCGAAUGGGACCCA, for which the self-cleavage is 0.759.
To GGCCGGCAUGGUCCCAGCCUCCUCGCUGGCGCCGGCUGGGCAACUUUCCGAGGGGACCGUCCCCUCGGUAAGGGCGAAUGGGACCCA belongs 0.755; to GGCCGGCAUGGUCCCAGCCUCCUCGCUGGCGCCGGCUGGGCAACAAUCUGAGGGGACCGUCCCCUCGGUAAUGGCGAAUGGGACCCA, 0.739; to GGCCGGCAUGGUCCCAGCCUCCUCGCUGGCGCCGGCUGGGCAACAAUCGGAGGGGACCGUCCCCUCGGUAAUGGCGAAUGGGACCCA, 0.415.
To GGCCGGCAUGGUCCCAGCCUCCUCGCUGGCGCCGGCUGGGCAACAAUCCGAGGGGACCGUCCCCUGGGUAAUGGCGAAUGGGACCCA belongs 1.05; to GGCCGGCAUGGUCCCAGCCUCCUCGCUGGCGCCGGCUGGGCAACUUUCCGAGGGGACCGUCCCCCCGGUAAUGGCGAAUGGGACCCA, 1.04.
Regarding GGCCGGCAUGGUCCCAGCCUCCUCGCUGGCGCCGGCUGGGCAACUUUCCGAGGGGACCGUCCCCACGGUAAUGGCGAAUGGGACCCA, the self-cleavage stood at 0.618.
To GGCCGGCAUGGUCCCAGCCUCCUCGCUGGCGCCGGCUGGGCAACAAUCCGAGGGGACCGUCCCCUCGGUAAUGGCGAAUGGGACCCA belongs 0.794.
To GGCCGGCAUGGUCCCAGCCUCCUCGCUGGCGCCGGCUGGGCAACAAUCCGAGGCGACCGUCCCCUCGGUAAUGGCGAAUGGGACCCA belongs 0.706.
To GGCCGGCAUGGUCCCAGCCUCCUCGCUGGCGCCGGCUGGGCAACUUUCCGAGGGGACCGUCCCCUCGGUAAUGGCGAAUGGAACCCA belongs 0.162; to GGCCGGCAUGGUCCCAGCCUCCUCGCUGGCGCCGGCUGGGCAACUUUCCGAGGGGACCGUCCCCUCGGUAAUGGCGAAUGGUACCCA, 0.529.
In the case of GGCCGGCAUGGUCCCAGCCUCCUCGCUGGCGCCGGCUGGGCAACAAUCCGAGGGGACCGUCCCCUCGGUAAUGGCGAAUGGGACGCA, the self-cleavage was 0.575.
To GGCCGGCAUGGUCCCAGCCUCCUCGCUGGCGCCGGCUGGGCAACAAUCCGAGGGGACCGUCCCCUCGGUAAUGGCGAAUGGGACACA belongs 0.7.
To GGCCGGCAUGGUCCCAGCCUCCUCGCUGGCGCCGGCUGGGCAACAAUCCGAGGGGACCGUCCGCUCGGUAAUGGCGAAUGGGACCCA belongs 0.723.
Turning to GGCCGGCAUGGUCCCAGCCUCCUCGCUGGCGCCGGCUGGGCAACUUUCCGAGGGGACCGUCCCCUCGGUAAUGGCGAAUUGGACCCA, the self-cleavage turned out to be 0.153.
To GGCCGGCAUGGUCCCAGCCUCCUCGCUGGCGCCGGCUGGGCAACAAUCCGAGGGGACCGUCUCCUCGGUAAUGGCGAAUGGGACCCA belongs 0.712; to GGCCGGCAUGGUCCCAGCCUCCUCGCUGGCGCCGGCUGGGCAACAAUCCGAGGGGACCGUCACCUCGGUAAUGGCGAAUGGGACCCA, 0.543.
